Measurements as given in patent US20210130452A1 (Merck KGaA, published 2021).

T1: human IL-17F (human, UniProt Q96PD4 31-163, biotinylated with Sulfo-NHS-LC-Biotin in the AlphaScreen assays only)
T1 construct: also called hIL-17F; recombinant human IL-17F
T1 sequence: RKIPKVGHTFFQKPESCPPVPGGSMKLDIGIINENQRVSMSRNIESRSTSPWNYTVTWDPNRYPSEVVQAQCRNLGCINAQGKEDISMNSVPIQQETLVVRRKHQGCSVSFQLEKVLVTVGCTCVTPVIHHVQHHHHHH

T2: mouse IL-17F (mouse, UniProt Q7TNI7 29-161)
T2 sequence (looked up): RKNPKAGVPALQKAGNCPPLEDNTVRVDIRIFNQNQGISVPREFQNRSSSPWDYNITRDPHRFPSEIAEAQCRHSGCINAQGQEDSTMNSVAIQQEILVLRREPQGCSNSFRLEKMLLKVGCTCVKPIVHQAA

T3: rat IL-17F (rat, UniProt Q5BJ95 29-161)
T3 sequence (looked up): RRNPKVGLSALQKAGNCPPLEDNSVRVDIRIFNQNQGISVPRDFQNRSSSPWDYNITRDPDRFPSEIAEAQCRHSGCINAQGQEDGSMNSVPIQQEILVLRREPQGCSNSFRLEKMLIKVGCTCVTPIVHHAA

T4: human IL-17D (human, UniProt Q8TAD2 18-202, limits assumed)
T4 construct: expressed in E. coli; also called hIL-17D
T4 sequence (looked up): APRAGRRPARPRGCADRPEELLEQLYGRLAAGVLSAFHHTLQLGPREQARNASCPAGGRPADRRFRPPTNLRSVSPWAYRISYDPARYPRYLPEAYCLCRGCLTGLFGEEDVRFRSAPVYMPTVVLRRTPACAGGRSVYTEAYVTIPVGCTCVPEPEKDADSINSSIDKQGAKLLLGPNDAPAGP

T5: human IL-17E (human, UniProt Q9H293 33-177)
T5 construct: expressed in E. coli; also called hIL-17E
T5 sequence (looked up): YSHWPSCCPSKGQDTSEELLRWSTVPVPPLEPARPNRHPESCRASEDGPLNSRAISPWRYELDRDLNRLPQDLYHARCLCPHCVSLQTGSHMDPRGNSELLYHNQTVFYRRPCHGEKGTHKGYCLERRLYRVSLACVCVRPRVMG

T6: human IL-17C (human, UniProt Q9P0M4 19-197)
T6 construct: expressed in E. coli; also called hIL-17C
T6 sequence (looked up): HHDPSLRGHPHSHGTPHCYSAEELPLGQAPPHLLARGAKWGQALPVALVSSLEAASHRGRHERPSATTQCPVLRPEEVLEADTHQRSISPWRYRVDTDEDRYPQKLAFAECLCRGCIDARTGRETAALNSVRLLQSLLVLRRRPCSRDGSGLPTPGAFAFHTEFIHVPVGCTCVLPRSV

T7: human IL-17B (human, UniProt Q9UHF5 21-180)
T7 construct: expressed in E. coli; also called hIL-17B
T7 sequence (looked up): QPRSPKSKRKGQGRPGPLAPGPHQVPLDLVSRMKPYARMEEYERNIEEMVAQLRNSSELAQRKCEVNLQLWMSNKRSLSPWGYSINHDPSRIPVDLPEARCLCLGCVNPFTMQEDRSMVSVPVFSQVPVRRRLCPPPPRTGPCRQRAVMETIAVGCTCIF


Experiments:
[1] = molecular target: T8, human IL-17A/F heterodimer (human, UniProt Q16552 24-155; Q96PD4 31-163, limits assumed, biotinylated with Sulfo-NHS-LC-Biotin in the AlphaScreen assays only); assay: SPR Biacore, hIL-17A/F on chip; purified protein
T8 construct: also called hIL-17A/F

[2] = molecular target: T8, human IL-17A/F heterodimer; assay: cell-based or functional assay
human IL-17A [3] = molecular target: T9, human IL-17A (human, UniProt Q16552 24-155, biotinylated with Sulfo-NHS-LC-Biotin in the AlphaScreen assays only); assay: AlphaScreen competition, hIL-17A - IL-17RC-Fc;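 further: Read-out after 1 h at room temperature with the receptor Fc-fusion, Acceptor beads and streptavidin-coated Donor beads present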
T9 construct: also called hIL-17A; recombinant human IL-17A
Experimental: (§1) To this mixture, the IL-17RA or IL-17RC Fc-fusions, Acceptor beads and the streptavidin Donor beads were added and further incubated for 1 hour at RT.

human IL-17F = molecular target: T1, human IL-17F; assay: SPR Biacore, hIL-17F on chip; periplasmic extract (*); NB = no binding
human IL-17A [4] = molecular target: T9, human IL-17A; assay: cell-based or functional assay
human IL-17A [5] = molecular target: T9, human IL-17A; assay: SPR Biacore, hIL-17A on chip; purified protein
[6] = molecular target: T8, human IL-17A/F heterodimer; assay: AlphaScreen competition, hIL-17A/F - IL-17RA-Fc
Experimental: as §1

human IL-17A [7] = molecular target: T9, human IL-17A; assay: AlphaScreen competition, hIL-17A - IL-17RA-Fc;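 further: receptor Fc-fusion plus Acceptor and streptavidin Donor beads incubated with the mixture for 1 h at room temperature before reading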
Experimental: as §1

[8] = molecular target: T8, human IL-17A/F heterodimer; assay: AlphaScreen competition, hIL-17A/F - IL-17RC-Fc
Experimental: as §1

mouse IL-17F = molecular target: T2, mouse IL-17F; assay: binding ELISA
Experimental: (§2) Binding of a selected panel of anti-IL-17 Nanobodies to IL-17 of other species was assessed using a binding ELISA. […] HRP (horseradish peroxidase) conjugated anti-myc (Serotec, MCA 2200P) was used for detection using esTMB as substrate.

rat IL-17F = molecular target: T3, rat IL-17F; assay: binding ELISA
Experimental: as §2

human IL-17D = molecular target: T4, human IL-17D; assay: SPR, cytokine on chip
Text: (§3) Human IL-17B, IL-17C, IL-17D or IL-17E were all expressed in E. coli, and covalently bound to a CM sensor chip surface via amine coupling using EDC/NHS for activation and HCl for deactivation.
(§4) Next, binding buffer was sent over the chip at the same flow rate to allow spontaneous dissociation of bound Nanobody or antibody.

human IL-17E = molecular target: T5, human IL-17E; assay: SPR, cytokine on chip
Text: as §3, §4

human IL-17C = molecular target: T6, human IL-17C; assay: SPR, cytokine on chip
Text: as §3, §4

human IL-17B = molecular target: T7, human IL-17B; assay: SPR, cytokine on chip
Text: as §3, §4

T8 sequence (Q16552 24-155 limits assumed, chain 1 of 2, one chain of several): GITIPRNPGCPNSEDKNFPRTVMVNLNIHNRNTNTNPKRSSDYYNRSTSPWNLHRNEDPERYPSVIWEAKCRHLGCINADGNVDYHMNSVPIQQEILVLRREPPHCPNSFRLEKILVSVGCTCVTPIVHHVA
T9 sequence (Q16552 other isoform, or with tags, fused parts or gaps): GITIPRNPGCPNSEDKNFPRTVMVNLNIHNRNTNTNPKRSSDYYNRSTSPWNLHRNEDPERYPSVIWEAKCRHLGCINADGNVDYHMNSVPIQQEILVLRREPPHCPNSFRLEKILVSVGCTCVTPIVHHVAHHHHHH

Binder	koff [1] [s⁻¹]	IL-17A/F-induced IL-6 production in HT-1080 cells, Emax [2] [%]	IL-17A/F-induced IL-6 production in HT-1080 cells, IC50 [2] [pM]	IC50 (human IL-17A [3]) [pM]	binding result (human IL-17F)	IL-17A-induced IL-6 production in HT-1080 cells, Emax (human IL-17A [4]) [%]	IL-17A-induced IL-6 production in HT-1080 cells, IC50 (human IL-17A [4]) [pM]	koff (human IL-17A [5]) [s⁻¹]	IC50 [6] [pM]	IC50 (human IL-17A [7]) [pM]	IC50 [8] [pM]	binding result (mouse IL-17F)	binding result (rat IL-17F)	binding result (human IL-17D)	binding result (human IL-17E)	binding result (human IL-17C)	binding result (human IL-17B)
02A10 (VHH, Class 2 Nanobody (anti-IL-17A and IL-17A/F); not shown: c-myc, His6 tag) VHH: EVQLVESGGGLVQPGGSLRLSCAASGFALGYYAIGWFRQAPGKEREGVSCDSSSDGRTYYGDSVKGRFTISTDSAKNTVYLQMNSLKPEDTAVYYCATCTDFEYDYWGQGTQVTVSS	0.00028	98.5	29200	381	no binding	104	4300	0.00022	199	115	248						
04B10 (VHH, Class 2 Nanobody (anti-IL-17A and IL-17A/F); not shown: c-myc, His6 tag) VHH: EVQLVESGGGLVQAGGSQSLSCVASGTIVNINVMGWYRQAPGKQRELVALITSGGGTTYGDSVKGRFTISIDNAKNTVILQMNSLEAEDTAVYYCAAEIGYYSGGTYFSSEAHWGQGTQVTVSS	0.0005	97	59200	366	no binding	99.7	5100	0.0004	95	68	52						
07B11 (VHH, Class 3) VHH: EVQLVESGGGLVQAGGSLRLSCVASGRAFSSYVMGWFRQAPGMEREFVALIRWSDGITGYVDSVKGRFTISRDNAKNTVYLQMNSLKPEDTAVYYCAAAVRPGDYDYWGQGTQVTVSS												no binding (tested: 250 nM)	no binding (tested: 250 nM)	no binding	no binding	no binding	no binding
07B09 (VHH, Class 3) VHH: EVQLVESGGGLVQAGGSLRLSCGASGGTFSSYATGWFRQAPGKEREFVAVLRWSDGHTAYADSVKGRFTISRDGAKNTMYLQMSSLKPEDTAIYYCTTATRPGEWDYWGQGTQVTVSS												no binding (tested: 250 nM)	no binding (tested: 250 nM)	no binding	no binding	no binding	no binding
08H01 (VHH, Class 3) VHH: EVQLVESGGGLVQAGGSLRLSCGASGGTFSSYATGWFRQAPGKEREFVAVLRWSDSHTAYADSVEGRFTISRDGAKNTVYLQMSSLKPEDTAIYYCTTGTRPGEWHYWGQGTQVTVSS												no binding (tested: 250 nM)	no binding (tested: 250 nM)	no binding	no binding	no binding	no binding
16A04 (VHH, Class 3; also called IL17MS16A04) VHH: EVQLVESGGGLVQAGGSLRLSCAASGRTFSSYVVGWFRQAPGKEREFIGAISGSGDSIYYAVSEKDRFTISRDNGKNTLYLQMSSLKAEDTAVYYCTADQEFGYLRFGRSEYWGQGTQVTVSS												no binding (tested: 250 nM)	no binding (tested: 250 nM)	no binding	no binding	no binding	no binding
06E11 (VHH, Class 3) VHH: EVQLVESGGGLVQAGGSLRLSCPVSGRAFSRGRLGWFRQAPGKEREFVAVAHWSGAITSYADSVKGRFTFSRDNAKNTMNLQMNSLKPEDTAVYYCAADSETSGNWVYWGQGTQVTVSS												no binding (tested: 250 nM)	no binding (tested: 250 nM)	no binding	no binding	no binding	no binding

Other lines, results leading:

koff [1] [s⁻¹]	IL-17A/F-induced IL-6 production in HT-1080 cells, Emax [2] [%]	IL-17A/F-induced IL-6 production in HT-1080 cells, IC50 [2] [pM]	IC50 (human IL-17A [3]) [pM]	binding result (human IL-17F)	IL-17A-induced IL-6 production in HT-1080 cells, Emax (human IL-17A [4]) [%]	IL-17A-induced IL-6 production in HT-1080 cells, IC50 (human IL-17A [4]) [pM]	koff (human IL-17A [5]) [s⁻¹]	IC50 [6] [pM]	IC50 (human IL-17A [7]) [pM]	IC50 [8] [pM]	binding result (mouse IL-17F)	binding result (rat IL-17F)	binding result (human IL-17D)	binding result (human IL-17E)	binding result (human IL-17C)	binding result (human IL-17B)	Binder
0.0081	68.5	45900	468	no binding	111	9700	0.00063	3980	99	3150							04F09 (VHH, Class 2 Nanobody (anti-IL-17A and IL-17A/F); not shown: c-myc, His6 tag) VHH: EVQLVESGGGLVQPGGSLRLSCAASGRTFSTHAMGWFRQAPGKERDFVAAIRWSDGSSFYADSVKGRFTISRDNAKNAVYLQSNSLKSEDTAVYVCYADVEGPTALHKYWGRGTQVTVSS
											no binding (tested: 250 nM)	no binding (tested: 250 nM)	no binding	no binding	no binding	no binding	24G10 (VHH, Class 3) VHH: EVQLVESGGGLVQAGGSLRLSCGAAGGTFSSYATGWFRQAPGKEREFVAVFRWSDSHTAYADSVKGRFTISRDGAKNTLYLQMSSLKPEDTAIYYCTTATRPGEWDYWGQGTQVTVSS
											no binding (tested: 250 nM)	no binding (tested: 250 nM)					24B08 (VHH, Class 3) VHH: EVQLVESGGGLVQAGGSLRLSCAVSGGTFSTYKMGWFRQAPGKEREIVARISTNGPTAYAEFVKGRFTVSRENTKNTVYLQMNSLNIEDTAVYYCAAGYDSLFAGYDYWGQGTQVTVSS
